Reference: the supplement of paper PMC9732359
± gives the uncertainty stated by the source.

Test: protein stability index of a GFP-peptide fusion (yeast GPS) (PSI 1-4); higher = more stable; sorted into four equal gates, so the index is relative within each strain
Outline: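 Tiled yeast protein peptides of 17 residues were each joined downstream of GFP, on plasmids that also express Cherry. The pooled library was maintained in yeast, and mid-log cultures in leucine-free medium were sorted into four equal gates on the GFP/Cherry ratio. Plasmids from every gate were amplified by PCR and sequenced on Illumina, with barcodes linking reads to strains. The protein stability index of a peptide is its gate-number-weighted read frequency summed over the gates.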

Sequence	protein stability index (doa10∆)	protein stability index (pdr5∆)	protein stability index (ubr1∆)	protein stability index (san1∆)
LYGAPGTGKTLLAKAVA [RPT2]	1.77 ± 0.11	1.48 ± 0.12	1.58 ± 0.1	
FDSLIKVQISKIPILAQ [RPN9]	2.69 ± 0.081	1.8 ± 0.056	1.96 ± 0.081	2.59 ± 0.094
EIKGASETPLQKTVNLK [RPN4]	3 ± 0.12	3.42 ± 0.13	3.14 ± 0.056	3.05 ± 0.1
IDGSTSHEERIEAIDEY [ISW2]	3.26 ± 0.079	3.26 ± 0.11	3.32 ± 0.047	3.06 ± 0.091
SASNTAKSTPNTNPSPL [GAL11]	2.67 ± 0.044	2.87 ± 0.042	2.9 ± 0.032	2.65 ± 0.038
TISECNLYDDVKCWSKF [MED1]	2.27 ± 0.093	2.34 ± 0.2	3.14 ± 0.12	3.38 ± 0.071
QLAIRNDDELNKLLGNV [HTA1]	3.31 ± 0.14	3.38 ± 0.071	3.43 ± 0.078	3.23 ± 0.064
SSLIPHCITSITLALAD [MTR3]	1.28 ± 0.055	1.32 ± 0.069	1.3 ± 0.083	1.27 ± 0.17
YNVKNIIQGRKNFDMLN [PCI8]	2.51 ± 0.035	2.52 ± 0.037	2.58 ± 0.028	2.72 ± 0.039
TLDNPLLVDKDANGVSL [YJL039C/NUP192]	3.17 ± 0.057	3.12 ± 0.048	3.13 ± 0.035	3.08 ± 0.038
LKNKYESYDAALSLHRE [FAS2]	3.181 ± 0.019	3.134 ± 0.016	3.034 ± 0.014	3.083 ± 0.014
SDKAQLNVVMKNLERLR [SMC4]	3.28 ± 0.099	3.46 ± 0.15	2.72 ± 0.28	3.13 ± 0.11
NDVQGIDDVQTIKVVKR [RPP1]	3.08 ± 0.064	2.62 ± 0.066	2.81 ± 0.056	2.69 ± 0.053
RAVFLFRCKETHSYNFM [RPC82]	2.19 ± 0.058	2.02 ± 0.084	2.47 ± 0.063	1.98 ± 0.091
SSLRKNASGNKRSGVIE [ITC1]	2.96 ± 0.22	2.22 ± 0.15	2.06 ± 0.089	
PSYVHFKVQIIELLSYL [YML103C/NUP188]	1.41 ± 0.063	2.27 ± 0.065	2.04 ± 0.05	1.8 ± 0.072
GDVVLAAAYSHELPRYG [RPL5]	2.83 ± 0.073	2.95 ± 0.068	2.97 ± 0.074	2.99 ± 0.061
YPEYDQITKFPKYRDNL [SSN3]	2.21 ± 0.18	2.4 ± 0.13	2.25 ± 0.047	2.24 ± 0.12
YYLGQYYGCLENDHERG [CSN12]	2.68 ± 0.098	2.85 ± 0.093	3.06 ± 0.052	2.84 ± 0.06
KNHFRKHWQERVKVHFD [RPL13A]	1.3 ± 0.037	1.71 ± 0.05	1.54 ± 0.038	1.47 ± 0.083
MNIPQRQFSNEEVNRCY [SNF2]	2.44 ± 0.1	3 ± 0.14	3 ± 0.065	2.96 ± 0.26
DLSLNITLHPSFFGPRM [RPB7]	2.25 ± 0.22	1.83 ± 0.1	1.55 ± 0.074	1.7 ± 0.14
GHLNGHTPTIASYLTPL [SSN2]	2.24 ± 0.039	2.74 ± 0.043	2.54 ± 0.035	2.62 ± 0.044
VSYKDYSIFLENENILI [SMC1]	2.62 ± 0.13	2.81 ± 0.1	2.59 ± 0.086	
HRQEIFKDSPMDLFMST [GAL11]	2.85 ± 0.089	2.98 ± 0.059	2.87 ± 0.076	3.23 ± 0.073
TPNVNVLVLHGDKDTRA [ISW2]	2.63 ± 0.05	2.36 ± 0.05	2.81 ± 0.05	2.32 ± 0.08
LLRFNGVERLIPVGDNT [PRE4]	1.58 ± 0.068	1.73 ± 0.07	1.86 ± 0.093	1.53 ± 0.13

Sequence	protein stability index (doa10∆)	protein stability index (pdr5∆)	protein stability index (ubr1∆)	protein stability index (san1∆)
ITMESVHEWEVSKPSLL [PRP8]	3.29 ± 0.069	3.29 ± 0.069	3.24 ± 0.056	3.29 ± 0.066
FHSAVENLVQGNGNVSE [YCG1]	3.21 ± 0.092	2.97 ± 0.067	3.02 ± 0.12	3.23 ± 0.069
PFMSYSPQLTAIIGLKS [SNF12]	1.67 ± 0.055	2.16 ± 0.062	1.98 ± 0.053	2.3 ± 0.078
VEKTLLSDVAFYVQDVY [RPO31]	2.11 ± 0.22	3.14 ± 0.23	2.49 ± 0.15	
LLSGEDLTLDDISLKAD [YJL039C/NUP192]	3.36 ± 0.052	3.39 ± 0.065	3.23 ± 0.048	3.44 ± 0.038
TTQDQCKLTLDINVELF [RPB8]	2.97 ± 0.054	2.96 ± 0.07	3.3 ± 0.053	2.93 ± 0.037
VPVTKLGRLVKAGKITT [RPS2]	3.13 ± 0.091	3 ± 0.15	3.45 ± 0.078	3.03 ± 0.11
IGSGAMSPLECRNILGV [RPP1]	1.93 ± 0.03	2.43 ± 0.046	2.38 ± 0.034	2.19 ± 0.064
PGVNREINSEMCHIVRK [GRR1]	3.01 ± 0.096	3.05 ± 0.082	3.12 ± 0.052	3.35 ± 0.059
GKGRFQTPAEKHAFMGT [RPL3]	3.13 ± 0.17	3.2 ± 0.061	2.98 ± 0.093	2.97 ± 0.1
PNTKDAMSLYHSPFPFN [PRP8]	2.64 ± 0.049	2.55 ± 0.053	2.71 ± 0.036	2.63 ± 0.06
VNFTEIGGLIPQWKRHL [YCS4]	3.46 ± 0.25			
LLAHKVADEEANIELTW [RPC37]	1.49 ± 0.074		1.74 ± 0.1	1.59 ± 0.14
IMFNHARIIRSELLARD [RGR1]	1.58 ± 0.11	2.17 ± 0.14	2.55 ± 0.086	2.62 ± 0.14
ISKNPSNGIFYGPSFTK [SIR2]	2.94 ± 0.071	3.03 ± 0.054	3.15 ± 0.039	2.76 ± 0.059
HQPITSEQKMKEDADLK [SIR4]	2.88 ± 0.058	3.36 ± 0.1	3.26 ± 0.073	3.42 ± 0.063
VSEKAFLLTQSKVSIEQ [RPN7]	3.21 ± 0.18		2.8 ± 0.14	
VQMAKILRKELSEEKEV [MCD1]	3.37 ± 0.21	3.17 ± 0.27		2.9 ± 0.12
LEKKFQDRHVIFLAERR [RPS7A]	2.53 ± 0.23	2.9 ± 0.12	2.71 ± 0.11	2.86 ± 0.27
VGVHIADVTHFVKPGTA [DIS3]	2.51 ± 0.055	2.14 ± 0.058	2.76 ± 0.063	2.9 ± 0.052
EQYTKKINSWDQVLVKG [YJL041W/NSP1]	1.72 ± 0.095	2.29 ± 0.1	1.48 ± 0.087	
LYHLVIMKFQSLSDNDL [ECM29]		1.65 ± 0.25	3.28 ± 0.25	
LNSLSPQAILAKNSIID [SWI1]	1.79 ± 0.033	1.72 ± 0.029	1.75 ± 0.026	1.8 ± 0.044
VRSGVSKSAPSKKISNT [YAR002W/NUP60]	3.28 ± 0.085	3.25 ± 0.088	3.38 ± 0.056	3.26 ± 0.049
VYRFVTENAIEEKVIER [ISW2]	2.42 ± 0.11	2.46 ± 0.14	2.7 ± 0.063	2.5 ± 0.25
TTVKPLFQNVPEQGEEP [YAR002W/NUP60]	3.08 ± 0.07	3.3 ± 0.06	3.21 ± 0.052	3.32 ± 0.04
